{"source": "patent US9096835B2", "about": "“DNA polymerase” (Medical Research Council, priority 2003, dated 2015)", "molecules": {"B1": {"name": "M4: Taq mutant D58G, R74P, A109T, L245R, R343G, G370D, E520G, N583S, E694K, A743P; SEQ ID NO 2 (protein)", "chain": "MRGMLPLYEPKGRVLLVDGHHLAYRTFHALKGLTTSRGEPVQAVYGFAKSLLKALKEGGDAVIVVFDAKAPSFPHEAYGGYKAGRAPTPEDFPRQLALIKELVDLLGLTRLEVPGYEADDVLASLAKKAEKEGYEVRILTADKDLYQLLSDRIHVLHPEGYLITPAWLWEKYGLRPDQWADYRALTGDESDNLPGVKGIGEKTARKLLEEWGSLEALLKNLDRLKPAIREKILAHMDDLKLSWDRAKVRTDLPLEVDFAKRREPDRERLRAFLERLEFGSLLHEFGLLESPKALEEAPWPPPEGAFVGFVLSRKEPMWADLLALAAARGGRVHRAPEPYKALGDLKEARGLLAKDLSVLALREGLGLPPDDDPMLLAYLLDPSNTTPEGVARRYGGEWTEEAGERAALSERLFANLWGRLEGEERLLWLYREVERPLSAVLAHMEATGVRLDVAYLRALSLEVAEEIARLEAEVFRLAGHPFNLNSRDQLERVLFDELGLPAIGKTEKTGKRSTSAAVLGALREAHPIVEKILQYRELTKLKSTYIDPLPDLIHPRTGRLHTRFNQTATATGRLSSSDPNLQSIPVRTPLGQRIRRAFIAEEGWLLVALDYSQIELRVLAHLSGDENLIRVFQEGRDIHTETASWMFGVPREAVDPLMRRAAKTINFGVLYGMSAHRLSQELAIPYEEAQAFIKRYFQSFPKVRAWIEKTLEEGRRRGYVETLFGRRRYVPDLEARVKSVREPAERMAFNMPVQGTAADLMKLAMVKLFPRLEEMGARMLLQVHDELVLEAPKERAEAVARLAKEVMEGVYPLAVPLEVEVGIGEDWLSAKE", "modifications": "Mutant Thermus aquaticus DNA polymerase"}}, "type_in_all_cases": "biochemical", "key": {"[1]": {"test_system": "primer-template DNA substrates", "assay": "Processivity primer extension assay with and without trap DNA", "description": "Processivity was measured using a primer extension assay the presence and absence of trap DNA. Termination probabilities were calculated according to the method of Kokoska et al.\nOligonucleotide primer 32 (5′-GCGGTGTAGAGACGAGTGCGGAG-3′) (SEQ ID NO: 117) was ^32P-labelled and annealed to the template 33 (5′-CTCTCACAAGCAGCCAGGCAAGCTCCGCACTCGTCTCTACACCGCTCCGC-3′ (SEQ ID NO: 118)) (at a primer/template ratio of molar 1/1.5). wtTaq (0.0025 nM; 0.025 nM; 0.25 nM), M1(0.05 nM; 0.5 nM; 5 nM), and M4 (0.05 nM; 0.5 nM; 5 nM) were preincubated with the primer-template DNA substrates (10 nM) in 10 mM Tris-HCl at pH 9.0, 5 mM MgCl2, 50 mM KCl, 0.1% Triton X 100 at 25° C. for 15 min. Reactions were initiated by addition of 100 μM dNTPs with or without trap DNA (1000-fold excess of unlabeled primer-templates). Reactions were performed at 60° C. for 2 min. […] Thus, in the presence of trap DNA, all DNA synthesis resulted from a single DNA binding event. Gel band intensities were calculated using a Phosphoimager and ImageQuant (both Molecular Dynamics) software. Percentage of polymerase molecules, which extended primers to the end of the template was calculated using the formula: In×100%/(I1+I2+ . . . +In), where In is the intensity of the band at position 22 or 23; I1, I2 . . . is the intensity of the band at position 1, 2 . . . . Termination probabilities (τ) were calculated according to the method of Kokoska et al^1, whereby t at a particular template position was calculated as the intensity of the band at this position divided by the sum of the intensity of this band and the band intensities of all longer products."}, "[2]": {"test_system": "primers with 3′ transversion mismatches", "assay": "Mismatch extension PCR assay", "conditions": "G•A, C•C, G•G mismatched primers", "description": "A PCR assay was used to screen and rank clones. Briefly, clones were normalized for activity in PCR with matched primers 3, 4 and activity with mismatched primers 1 and 2 (1 μM each) determined at minimal cycle number (15-25 cycles). Extension capability for different mismatches was determined by the same assay using mismatch primers 2 (C•C mismatch), 5 (A•A mismatch), 6 (G•G mismatch), 7 (G•A mismatch) with matched primer 3 or primer 1 (A•G mismatch) with matched primer 4. Incorporation of unnatural substrates in 50 cycle PCR was carried out using standard conditions and 50 μM […] dNTPs (Promega) or 50 μM FITC-12-dATP (Perkin-Elmer), Rhodamine-5-dUTP (Perkin-Elmer) or Biotin-16-dUTP (Roche) with equivalent amounts of the other 3 dNTPs (all 50 μM). Long PCR was carried out using a two-step cycling protocol as described (22) 94° C. for 2 minutes, followed by 20 cycles of (94° C. 15 sec, 68° C. 30 min) using 5 ng of phage λ DNA (New England Biolabs) template and either primers 9, 10, 11 with primer 12 or primer 13 with primers 10, 14."}, "[3]": {"test_system": "primer-template duplex, correct or incorrect incoming dNTP", "assay": "Steady-state single nucleotide incorporation kinetics, gel-based assay", "description": "Kinetic parameters were determined using a gel-based assay essentially as described (16). Primers 15, 16, 17 (3′ base=G, C, A respectively) were ^32P-labeled and annealed to one of template strands 18, 19, 20 (template base=C, G, A respectively) or 21 (template base C different context). Duplex substrates were used at 50 nM final concentration in 1× Taq buffer with various concentrations of enzyme and dNTP. Reactions were carried out at 60° C. for times whereby <20% of primer-template was utilized at the highest concentration of dNTP.\nExtension and incorporation kinetics of M1 and M4 for a selection of mismatches were measured using a gel-based steady-state kinetic assay (Goodman) (Tables 1 & 2). M1 and M4 respectively extend a C•C mispair 390 and 75-fold more efficiently than wtTaq. […] The gain in extension efficiency derives predominantly from increased relative Vmax values for the mutant polymerases, while Km for nucleotide substrates remains largely unchanged. For most DNA polymerases the relative efficiency of extending a given mispair (f0ext) is similar to the relative efficiency of forming it (finc) (Goodman 1993, Goodman 1990, Washington 2001). Indeed, M1 and M4 respectively incorporate dCTP opposite template base C 206- and 29-fold more efficiently than wtTaq (Table 2)."}, "undamaged template": {"test_system": "undamaged template", "assay": "Translesion replication assay, control", "conditions": "gel-extension assay, 60° C.", "description": "Template primers 22 (undamaged) or 23 (containing a synthetic abasic site) were synthesized by Lofstrand Laboratories (Gaithersburg, Md.). Template primer 24 (containing a single cis-syn thymine dimer), was synthesized as described (34). Primer 25 was ^32P-labeled and annealed to one of the three templates 22, 23, 24 (at a primer template ratio of molar 1:1.5) and extended in 40 mM Tris.HCl at pH 8.0, 5 mM MgCl2, 100 μM of each dNTP, 10 mM DTT, 250 μg/ml BSA, 2.5% glycerol, 10 nM primer-template DNA and 0.1 Unit of polymerase at 60° C. for various times."}}, "note": "Where “and” joins values, the source holds several entries; their conditions need not be identical. Identical values can stand only once. Entries after “also recorded” stand apart in the source; their conditions may differ."}
{"molecule": "B1", "values": [{"measurement": "processivity compared with wtTaq", "setting": "[1]; even at the lowest enzyme concentrations", "result": "processivity equal (or higher) than wtTaq"}, {"measurement": "bound polymerase that extended primers to the end of the template", "setting": "[1]; in the presence of trap DNA (single DNA binding event)", "result": 15, "unit": "%"}, {"measurement": "termination probability", "setting": "[1]; positions 2 through 5", "result": "13-35%"}, {"measurement": "termination probability", "setting": "[1]; positions 6 and 7", "result": "2-4%"}, {"measurement": "extension of 3′ transversion mismatches in PCR", "setting": "[2]", "result": "greatly increased ability to extend; also recorded: generate amplification products"}, {"measurement": "Km", "setting": "[3]; base pair C: dCTP", "result": 1390, "unit": "µM"}, {"measurement": "Ratio of finc, finc (mutant polymerase)/finc (wtTaq)", "setting": "[3]; base pair C: dCTP", "result": "29 and 29.22"}, {"measurement": "finc, f (incorrect dNTP)/f (correct dNTP)", "setting": "[3]; base pair C: dCTP", "result": "1.13 × 10^−6"}, {"measurement": "Vmax", "setting": "[3]; base pair C: dCTP (template base: incoming nucleotide)", "result": 52.63, "unit": "% Min^−1"}, {"measurement": "Vmax", "setting": "[3]; base pair C: dGTP (template base: incoming nucleotide), correct dNTP", "result": 335.42, "unit": "% Min^−1"}, {"measurement": "Km", "setting": "[3]; base pair C: dGTP, correct dNTP", "result": 0.01, "unit": "µM"}, {"measurement": "Km", "setting": "[3]; base pair G: dATP", "result": 158, "unit": "µM"}, {"measurement": "Ratio of finc, finc (mutant polymerase)/finc (wtTaq)", "setting": "[3]; base pair G: dATP", "result": 2.18}, {"measurement": "finc, f (incorrect dNTP)/f (correct dNTP)", "setting": "[3]; base pair G: dATP", "result": "1.80 × 10^−4"}, {"measurement": "Vmax", "setting": "[3]; base pair G: dATP (template base: incoming nucleotide)", "result": 1935.48, "unit": "% Min^−1"}, {"measurement": "Vmax", "setting": "[3]; base pair G: dCTP (template base: incoming nucleotide), correct dNTP", "result": 817, "unit": "% Min^−1"}, {"measurement": "Km", "setting": "[3]; base pair G: dCTP, correct dNTP", "result": 0.012, "unit": "µM"}, {"measurement": "Km", "setting": "[3]; base pair G: dGTP", "result": 82.3, "unit": "µM"}, {"measurement": "Ratio of finc, finc (mutant polymerase)/finc (wtTaq)", "setting": "[3]; base pair G: dGTP", "result": 68.82}, {"measurement": "finc, f (incorrect dNTP)/f (correct dNTP)", "setting": "[3]; base pair G: dGTP", "result": "1.17 × 10^−4"}, {"measurement": "Vmax", "setting": "[3]; base pair G: dGTP (template base: incoming nucleotide)", "result": 656.46, "unit": "% Min^−1"}, {"measurement": "Km", "setting": "[3]; base pair G: dTTP", "result": 5.1, "unit": "µM"}, {"measurement": "Ratio of finc, finc (mutant polymerase)/finc (wtTaq)", "setting": "[3]; base pair G: dTTP", "result": 1.1}, {"measurement": "finc, f (incorrect dNTP)/f (correct dNTP)", "setting": "[3]; base pair G: dTTP", "result": "1.82 × 10^−4"}, {"measurement": "Vmax", "setting": "[3]; base pair G: dTTP (template base: incoming nucleotide)", "result": 63.20, "unit": "% Min^−1"}, {"measurement": "primer extension on undamaged template", "setting": "undamaged template", "result": "efficiently and rapidly extended primers to the end of the template"}]}
